Molecular target: T1, H-2 D^b MHC class I molecule (mouse, UniProt P01887 21-119; P01899 25-362, limits assumed)
T1 construct: whole, on cells
T1 sequence (MHC heavy, looked up): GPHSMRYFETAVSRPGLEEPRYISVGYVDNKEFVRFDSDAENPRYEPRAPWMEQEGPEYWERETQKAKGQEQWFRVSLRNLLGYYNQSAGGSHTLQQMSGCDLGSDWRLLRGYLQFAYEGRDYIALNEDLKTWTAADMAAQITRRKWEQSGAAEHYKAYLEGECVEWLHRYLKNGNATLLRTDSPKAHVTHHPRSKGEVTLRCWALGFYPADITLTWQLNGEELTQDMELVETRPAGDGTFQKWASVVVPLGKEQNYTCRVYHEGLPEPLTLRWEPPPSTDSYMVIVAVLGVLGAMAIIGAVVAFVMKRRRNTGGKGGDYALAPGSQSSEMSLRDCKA
T1 sequence (b2m, looked up): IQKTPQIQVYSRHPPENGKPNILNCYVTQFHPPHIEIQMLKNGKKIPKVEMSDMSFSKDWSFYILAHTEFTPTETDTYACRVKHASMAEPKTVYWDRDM
Assay: synthetic peptide pulsed on L cells expressing H-2 D^b, read by T cell hybridoma activation

B1: SPAS-1 peptide STHVNHLHC (peptide)
peptide: STHVNHLHC
notes: Encoded by nucleotides 730 to 756 of the SPAS-1 (T) cDNA from TRAMP-C2 tumor cells
B1: binds.

Source: US20070202121A1 (University of California, published 2007)
